*1 amine or outer side, *2 acyl side, *3 side chain or, on linkers, in order; H or OH if unused. Bridges are numbered along the chain shown (N, C = ends). Where no end group is shown, it is not given here. [ ]: non-standard residue; d: D form. TBMB = c1c(C[*:1])cc(C[*:3])cc1C[*:2]; NMeR = CN[C@@H](CCCNC(=N)N)C(=O)O; hArg = N=C(N)NCCCC[C@H](N)C(=O)O; Aze = O=C(O)[C@@H]1CCN1
B1: Ac-(06-259-02) (peptide)
peptide: Ac-CNTWNPWCPWDAPLC-NH2
modifications: linker 1-8-15 via TBMB
notes: Synthetic bicyclic peptide without the terminal alanines, made on Rink amide resin
B2: Ac-(06-550) Aze3 HArg5 (peptide)
peptide: Ac-CSF[Aze]Y[hArg]CVYYPDIC-NH2
modifications: linker 1-7-14 via TBMB
notes: Synthetic bicyclic peptide, 5 x 6, made on Rink amide resin
B3: Ac-(06-550) HArg5 (peptide)
peptide: Ac-CSFPY[hArg]CVYYPDIC-NH2
modifications: linker 1-7-14 via TBMB
notes: as for B2
B4: Ac-(06-550) NMe-Arg5 (peptide)
peptide: Ac-CSFPY[NMeR]CVYYPDIC-NH2
modifications: linker 1-7-14 via TBMB
notes: as for B2
B5: Ac-(06-550) Aze3 NMe-Arg5 (peptide)
peptide: Ac-CSF[Aze]Y[NMeR]CVYYPDIC-NH2
modifications: linker 1-7-14 via TBMB
notes: as for B2
B6: 06-254-01 (peptide)
peptide: ACKNYWNPCDLIETTCA-NH2
modifications: linker 2-9-16 via TBMB; N-terminus assumed
SMILES: CC[C@H](C)[C@@H]1NC(=O)[C@H](CC(C)C)NC(=O)[C@H](CC(=O)O)NC(=O)[C@@H]2CSCc3cc(cc(c3)CSC[C@@H](C(=O)N[C@@H](C)C(N)=O)NC(=O)[C@H]([C@@H](C)O)NC(=O)[C@H]([C@@H](C)O)NC(=O)[C@H](CCC(=O)O)NC1=O)CSC[C@H](NC(=O)[C@H](C)N)C(=O)N[C@@H](CCCCN)C(=O)N[C@@H](CC(N)=O)C(=O)N[C@@H](Cc1ccc(O)cc1)C(=O)N[C@@H](Cc1c[nH]c3ccccc13)C(=O)N[C@@H](CC(N)=O)C(=O)N1CCC[C@H]1C(=O)N2
notes: Synthetic bicyclic peptide, 6 x 6, made on Rink amide resin
B7: 06-254-D1 (peptide)
peptide: CKNYWNPCDLIRPPC
modifications: linker 1-8-15 via TBMB
B8: 06-254-B9 (peptide)
peptide: CKNYWNPCDLLGIAC
modifications: linker 1-8-15 via TBMB
B9: 06-259-A6 (peptide)
peptide: CNYWNPWCSDTRIGC
modifications: linker 1-8-15 via TBMB
B10: 06-259-02 (phage clone) (peptide)
peptide: CNTWNPWCPWDAPLC
modifications: linker 1-8-15 via TBMB
B11: 06-254-E6 (peptide)
peptide: CKNYWNPCGLVYSTC
modifications: linker 1-8-15 via TBMB
B12: 06-254-02 (phage clone) (peptide)
peptide: CKNYWNPCDLIPGPC
modifications: linker 1-8-15 via TBMB
B13: 06-254-C1 (peptide)
peptide: CKNYWNPCDLIAPYC
modifications: linker 1-8-15 via TBMB
B14: 06-254-B3 (peptide)
peptide: CKNYWNPCDLISIKC
modifications: linker 1-8-15 via TBMB
B15: 06-254 parent (peptide)
peptide: CKNYWNPCDLVTISC
modifications: linker 1-8-15 via TBMB
notes: also called 06-254 (phage clone)
B16: 06-259-03 (phage clone) (peptide)
peptide: CNHWNPWCSADPPIC
modifications: linker 1-8-15 via TBMB
B17: 06-259-F1 (peptide)
peptide: CNHWNPWCSADPPRC
modifications: linker 1-8-15 via TBMB
B18: 06-259-H3 (peptide)
peptide: CNHWNPWCSDDPYIC
modifications: linker 1-8-15 via TBMB
B19: 06-259 (parent) (peptide)
peptide: CNTWNPWCGWVGGFC
modifications: linker 1-8-15 via TBMB
notes: also called 06-259 (phage clone)
B20: 06-254-F4 (peptide)
peptide: CKNYWNPCDLIQDAC
modifications: linker 1-8-15 via TBMB
B21: 06-259-E2 (peptide)
peptide: CNHWNPWCPADIPVC
modifications: linker 1-8-15 via TBMB
B22: 06-259-H4 (peptide)
peptide: CNHWNPWCSSDPPVC
modifications: linker 1-8-15 via TBMB
B23: 06-254-E5 (peptide)
peptide: CKNYWNPCDLLESTC
modifications: linker 1-8-15 via TBMB
B24: 06-254-A7 (peptide)
peptide: CKNYWNPCDLLHVRC
modifications: linker 1-8-15 via TBMB
B25: 06-254-A4 (peptide)
peptide: CKNYWNPCDLVDTFC
modifications: linker 1-8-15 via TBMB
B26: 06-254-F5 (peptide)
peptide: CKNYWNPCDLIPDLC
modifications: linker 1-8-15 via TBMB
B27: 06-254-H3 (peptide)
peptide: CKNYWNPCDLIADLC
modifications: linker 1-8-15 via TBMB
B28: 06-254-B1 (peptide)
peptide: CKNYWNPCDLLPDLC
modifications: linker 1-8-15 via TBMB
B29: 06-254-D6 (peptide)
peptide: CKNYWNPCDLIPDMC
modifications: linker 1-8-15 via TBMB
B30: 06-254-03 (phage clone) (peptide)
peptide: CKNYWNPCDLVMDTC
modifications: linker 1-8-15 via TBMB
B31: 06-254-E3 (peptide)
peptide: CKNYWNPCDLVHDIC
modifications: linker 1-8-15 via TBMB
B32: 06-254-H4 (peptide)
peptide: CKNYWNPCDLVQIHC
modifications: linker 1-8-15 via TBMB
B33: 06-254-G3 (peptide)
peptide: CKNYWNPCDLIPTGC
modifications: linker 1-8-15 via TBMB
B34: 06-254-D3 (peptide)
peptide: CKNFWNPCDLIPISC
modifications: linker 1-8-15 via TBMB
B35: 06-259-01 (phage clone) (peptide)
peptide: CNHWNPWCSVEPPVC
modifications: linker 1-8-15 via TBMB
B36: 06-254-01 (phage clone) (peptide)
peptide: CKNYWNPCDLIETTC
modifications: linker 1-8-15 via TBMB
B37: 06-254-G4 (peptide)
peptide: CKNYWNPCDLVEAQC
modifications: linker 1-8-15 via TBMB
B38: 06-259-F2 (peptide)
peptide: CNTWNPWCSWPDIDC
modifications: linker 1-8-15 via TBMB
B39: 06-254-E2 (peptide)
peptide: CKNYWNPCDLIWTDC
modifications: linker 1-8-15 via TBMB
B40: 06-254-G2 (peptide)
peptide: CKNYWNPCDLIGITC
modifications: linker 1-8-15 via TBMB

biological target: T1, rat plasma kallikrein (rat, UniProt P14272 391-638); experiment: enzyme inhibition assay, fluorogenic substrate Z-PheArg-AMC
T1 construct: domain: catalytic domain; Expressed and purified in house; also called rat kallikrein; rPK
T1 sequence (P14272 391-638 limits assumed): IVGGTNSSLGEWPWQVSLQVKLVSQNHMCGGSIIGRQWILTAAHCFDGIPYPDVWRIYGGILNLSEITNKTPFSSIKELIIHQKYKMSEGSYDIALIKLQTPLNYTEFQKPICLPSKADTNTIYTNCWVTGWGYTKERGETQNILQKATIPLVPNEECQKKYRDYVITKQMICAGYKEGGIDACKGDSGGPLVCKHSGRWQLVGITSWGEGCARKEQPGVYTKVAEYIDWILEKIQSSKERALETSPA
Method: (§1) Functional enzyme assays were conducted in 10 mM Tris HCl, 150 mM NaCl, 10 mM MgCl₂, 1 mM CaCl₂ and 1 mg/mL BSA (all Sigma UK) pH 7.4 at 25° C. in solid black 96 or 384 well plates. […] Release of AMC was measured using a Pherastar FS (BMG Labtech), excitation 360 nm, emission 460 nm. The rate of the linear phase of the reaction, typically 5 to 45 minutes, was calculated in MARS data analysis software (BMG labtech). The rate was then used to calculate the IC₅₀ and Kᵢ in Prism (GraphPad). A four parameter inhibition non-linear regression equation was used to calculate the IC₅₀. The One site-fit Kᵢ equation used to calculate the Kᵢ, constraining the Kᵢ to the Kₘ for the substrate which is 150 μM for the human enzyme, and 200 μM for the rat orthologue. All Kᵢ/IC₅₀ values are the mean of at least two independent experiments, and at least three for peptides with Kᵢ values lower than 1 nM. For rabbit kallikrein, between 7 to 14 pM enzyme was employed, with 33 μM substrate with a Kₘ of 50 μM.

Binder | Ki [nM]
B1 | 3.8
B2 | 5.6
B3 | 25

biological target: T2, human plasma kallikrein (human, UniProt P03952 20-638); experiment: as above
T2 construct: Enzyme used in the Ki assays; also called human kallikrein; PK
T2 sequence (P03952 20-638 limits assumed): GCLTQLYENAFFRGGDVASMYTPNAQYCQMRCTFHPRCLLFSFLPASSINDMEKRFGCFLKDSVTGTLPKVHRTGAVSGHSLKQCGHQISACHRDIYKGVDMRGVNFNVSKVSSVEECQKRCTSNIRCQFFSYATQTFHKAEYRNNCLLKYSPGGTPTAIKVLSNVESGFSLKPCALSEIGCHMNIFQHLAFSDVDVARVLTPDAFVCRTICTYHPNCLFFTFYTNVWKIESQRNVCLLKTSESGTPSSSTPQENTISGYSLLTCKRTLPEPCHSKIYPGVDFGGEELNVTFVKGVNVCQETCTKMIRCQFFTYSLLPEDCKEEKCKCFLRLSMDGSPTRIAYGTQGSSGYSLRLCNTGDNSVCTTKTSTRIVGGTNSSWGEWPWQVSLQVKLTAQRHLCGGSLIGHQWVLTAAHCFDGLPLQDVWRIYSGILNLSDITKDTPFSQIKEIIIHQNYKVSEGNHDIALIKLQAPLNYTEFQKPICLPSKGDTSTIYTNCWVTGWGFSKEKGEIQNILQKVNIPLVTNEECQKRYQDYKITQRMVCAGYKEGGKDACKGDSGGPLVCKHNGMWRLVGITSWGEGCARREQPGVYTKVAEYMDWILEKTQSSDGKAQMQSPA
Method: as §1

Binder | Ki [nM]
B1 | 5.9
B4 | 2.66
B5 | 53
B2 | 0.5
B3 | 1.8

biological target: T1, rat plasma kallikrein; experiment: as above; remark: another data set of the same source
Method: as §1

Binder | Ki [nM]
B6 | 15.9

biological target: T2, human plasma kallikrein; experiment: as above; remark: another data set of the same source
Method: as §1

Binder | Ki [nM]
B6 | 1

biological target: T3, biotinylated human plasma kallikrein (human, UniProt P03952 20-638, biotinylated (sites not given)); experiment: homogeneous plate-based binding assay, TBMB-cyclised phage on biotinylated human plasma kallikrein
T3 construct: mature; also called biotinylated hPK; biotinylated human kallikrein
T3 sequence (P03952 20-638 limits assumed): as above
Method: Assay of binding of individual clones: Library transformant colonies, or selection output colonies, were picked and grown as individual cultures in 2TY broth containing selective antibiotic. The picked colonies were DNA-sequenced using a QIAgen PyroMark Q96 DNA sequencer to reveal the amino-acid substitution present in each clone, and were assayed for human plasma kallikrein binding as follows. The phage-containing supernatant was harvested from the culture and phage were cyclised with tris-bromomethylbenzene (TBMB) based on the methods of Heinis et al (Nature Chemical Biology vol. 5 pp 502-507 (2009)). The purified phage from this process were assayed for binding to biotinylated human plasma kallikrein using a homogeneous plate-based binding assay; assay read-out measured on a BMG Labtech Pherastar FS plate reader. The quantitative binding data from duplicate assay samples was averaged (mean) and expressed as signal:background. Assay data shown is representative of at least 2 independent experiments. The assay data was correlated with the peptide sequences.

Binder | S:B (signal:background)
B7 | 33.6
B8 | 38
B9 | 22.6
B10 | 43.5
B11 | 23.5
B12 | 46.6
B13 | 27.4
B14 | 61.6
B15 | 23.5
B16 | 49.8
B17 | 38
B18 | 38.7
B19 | 1.17
B20 | 46.4
B21 | 37.7
B22 | 33.6
B23 | 29.7

Binder | S:B (signal:background)
B24 | 26.1
B25 | 32.4
B26 | 38.7
B27 | 25.2
B28 | 9.99
B29 | 24.4
B30 | 56.7
B31 | 30.2
B32 | 38.9
B33 | 37.5
B34 | 20.3
B35 | 51.7
B36 | 61.9
B37 | 33.1
B38 | 22.7
B39 | 31.4
B40 | 46.3

From patent publication US20190233475A1 (Bicycle, published 2019)
